Test results from the domain aggregation screens of Martell et al. (2025).

Assay: soluble fraction after stress (log2 fold change); higher = more stays soluble; pooled small domains, quantitative proteomics
Details: stress: pH 4
In short: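 Aggregation propensity is read out as the fold change in how much of each domain remains soluble after acid stress. The custom small-domain libraries were pooled, held at pH 4 and analysed with high-throughput quantitative proteomics. On the log2 scale used, higher values mean more of the domain stayed soluble.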

| Sequence | soluble fraction (log2) |
| --- | --- |
| HMIKNKDRIQYTLAHRKAFRKIEKELLGYNTFRSLFHDLDKVFLYPFFDYKKVHNFHRNHAHH | 0.0879 |
| HMIKRETNDNPVDPASLSLGDRVKILTLNQNGEIISLPDEKGLLQVQVGIMKIGVNVSDIMLI | -0.413 |
| HMIKRITDEQHPVDVDRLLVVTFTNAAASEMRERIGDAIEAALEKDPYNQHLQRQLTLVHNAQITTIDS | 0.00503 |
| HMIKSEERIQNIKEYILEFQFTYHRTPTMAQIAEAVGTVKSNVYKYLSEMEERGILTRNKREIEINDTIQ | -0.588 |
| HMIKSMTGYGSAKGTVEGIEVSVELKSVNNKFLDTSIRLPRSFLFAEETIKQAVSSHISRGKVDVFVSVDS | -0.0706 |
| HMIKYTIEELGELTGFTRRTIRYYVQEGLIDPPAGRGRGGFYYDSHVQQLLRIKSFQEKGIGITAMVSLM | -1.71 |
| HMILEEIIGKNIARYREAAGLTQATLAEKIGISTAFVSRVERGQKKMKVETLYATAKVLNVSVDALLS | 0.0651 |
| HMILKNVPSNLVNQRLDKVATVLFQTYSRTQIKKWILEGRLLVNGEISNPKDLVNENDEIEINPI | 0.3 |
| HMILKQTHIVQELTGPIRLQEYGVGIFQQISTKSALKKALKKNQITVDGVVGSTATFIKGGEIIIYHVTE | -1.68 |
| HMILNDRSELLDVVKRVIAANPASVADYRKGKKKVLGFLVGQAMKETKGQADPRILNELFLQELGEN | 0.0701 |
| HMILNNAKINTELNSLAEFTQRSLDSNTSEIGFYDYKKISYIASFATMKTTNWNVIIRAPINEFMGTVN | 0.203 |
| HMILQTLSERVTETLRDWILHGHFKPGDKIEEVPIAERMGVSRTPVRAAFATLTNEGLIDHQPNRGYQVRV | 0.201 |
| HMILSTNFFRHIVPKEYQTSYGTMKKWLTDHNVIGTNSIPQGIGYRIPTQGLSSTFSFKVVDVLPDR | ≥ 0.43 |
| HMIMDQTILRKQRELTDRLNRYRNEYYNHNKPSVSDEVYDRLFDELQSLEKETGVQMANSPTTTVG | 0.0972 |
| HMIMGTITKRTNPSGAIVYRAQIRIKKAGYPDFSESRTFSKKAMAVEWLKLREAELEMHPELLFR | 0.0366 |
| HMIMHLNQIIRNKRLAAGLTQEALAQKVGVTAPAVSKWEKGISYPDITLLPILARNLNTDVNTLLDFSA | 0.0644 |

| Sequence | soluble fraction (log2) |
| --- | --- |
| HMIMNLNVLANNVRRLRTAQRLSQSALASKAGLSVPAIKNLENARNEPRVNTVQVIAHALEVRLQDLFAPT | 0.18 |
| HMIMTEKEKKLLNRYIMHDTIHKLYHEQNKSMRWIADNLGINFRTVQKYLDMDSGEFQKYSESISNR | -0.141 |
| HMIMTIYEYIARNNPTGAKRVIESFGYVVTQPKKMGDNLRMLVAQEGEPALKAVVDLHPDKDLILEV | -1.93 |
| HMINAQETEIYRFLIEKANRLYSMVLGLKREELMTATRQFEEEVKHSSIHHLPKIYQAFSSYLELLERG | -0.207 |
| HMINDKLQHLFSLFPAMDKELKRKGITRQILWVEYKKQYPLGFGRSQFNSYFAAWKAQVSPS | 0.204 |
| HMINFLSKREIEVLRLVADGLSNRDVGQYLFISESTVKRHLSTIYEKLAVKSRTQAIDHARRADL | -1.39 |
| HMINGTITFYDDTTLKGELSSLDTKYLFIIPNGLVMPEKIAVSDIEYFNLDNGITLIQDGISKQTY | -1.11 |
| HMINLGDLEVGHTYHTRMPILQNDLKYSHKSPIQIVAEHSIVYGVRVYIGFLNEHRVLVTADDV | -0.269 |
| HMINLRTALNNAGVMQKELSDILYMTPQDVNRRFSGVTKWKPLEKRAIMQFLEDRGFEYTEEQLF | -0.883 |
| HMINLVPFELKFITAQVLDDIIKKIGINADTIILDINPKKIWVYAGEQELSDIQNIVKNVDVEDNI | -2.17 |
| HMINVLTPKQIEATTIAVKYGYYENPRTVSMRELSEISGIARSTLQEHLSKAEAALMILAAKSQL | -0.0956 |
| HMINVVDEVIKHLETNIISGFWAPGQKIDSEATLSKQLNVSRASIHTAIQQLIATGVLESFQGKGTFVRS | -0.226 |
| HMIPDGKWKEDPISDGQKNFINSLIEQAIDAGQDELGAEAKKYLASGEATKGNASAMIDKLKSAL | 0.398 |
| HMIPDMSLELAMSEQTSKGDLYGDLPNDKLALMFNAISKKVPHTDDHKRKMVAIQTILESRAS | 0.0127 |
| HMIPEGKWMEDPISEGQIKFIETLIKQAIDSGQDALGAEAKQYLSSGEATKGNASSMIDKLKDAL | -0.479 |
